From US20250282870A1 (BIOENTRE, published 2025)

T1: human CTLA4 expressed on Jurkat T cells (CTLA4 effector cells) (human, UniProt P16410 36-223)
T1 sequence (looked up): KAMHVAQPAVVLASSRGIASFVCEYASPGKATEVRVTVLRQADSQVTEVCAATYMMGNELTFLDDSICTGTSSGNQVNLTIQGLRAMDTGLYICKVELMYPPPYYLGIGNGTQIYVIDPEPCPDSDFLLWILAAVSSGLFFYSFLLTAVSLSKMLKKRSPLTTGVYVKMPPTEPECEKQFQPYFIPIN


Experiments:
[1] = target: T1, human CTLA4 expressed on Jurkat T cells …; experiment: cell-based or functional assay
[2] = target: FcγRII (CD32) expressed on Raji cells; experiment: cell-based or functional assay

activity titration curve, CTLA4 blockade assay, against 26 HuIgG1 [1] | RLU ratio of the CTLA4 blockade assay with anti-CD32 antibody at 10 µg per ml [2] [%] | Binder
> 2 fold of 26 HuIgG1 | – | 26 F(ab')2 (synthetic) (other) VH: QVQLKESGPGLVAPSQSLSITCTVSGFSLTSYGVYWVRQPPGKGLEWLGVIWAGGTTNYNSALMSRLSISKDNSKSQVFLKMSSLQTDDTAMYYCARGPPHAMMKRGYAMDYWGQGTSVIVSS VL: QNVLTQSPAIMPASPGEKVTMTCSATSSITYMSWYQQKSGSSPRLLIYDTSNLASGVPVRFSGSGSGTSYSLTISRMEAEDAATYYCQQWSSYPLTFGAGTKLELK
– | ~50 | 26 HuIgG1 (chimeric antibody: VH and VL of mouse antibody 26 on a human IgG1 scaffold) (antibody, V domains shown) VH: QVQLKESGPGLVAPSQSLSITCTVSGFSLTSYGVYWVRQPPGKGLEWLGVIWAGGTTNYNSALMSRLSISKDNSKSQVFLKMSSLQTDDTAMYYCARGPPHAMMKRGYAMDYWGQGTSVIVSS VL: QNVLTQSPAIMPASPGEKVTMTCSATSSITYMSWYQQKSGSSPRLLIYDTSNLASGVPVRFSGSGSGTSYSLTISRMEAEDAATYYCQQWSSYPLTFGAGTKLELK
